A protein production outcome set (Wang et al. 2014)

Assay: label from the status in PepcDB records

Sequence	protein production
MTTDQHQEILRTEGLSKFFPGVKALDNVDFSLRRGEIMALLGENGAGKSTLIKALTGVYHADRGTIWLEGQAISPKNTAHAQQLGIGTVYQEVNLLPNMSVADNLFIGREPKRFGLLRRKEMEKRATELMASYGFSLDVREPLNRFSVAMQQIVAICRAIDLSAKVLILDEPTASLDTQEVELLFDLMRQLRDRGVSLIFVTHFLDQVYQVSDRITVLRNGSFVGCRETCELPQIELVKMMLGRELDTHALQRAGRTLLSDKPVAAFKNYGKKGTIAPFDLEVRPGEIVGLAGLLGSGRTETAEVIFGIKPADSGTALIKGKPQNLRSPHQASVLGIGFCPEDRKTDGIIAAASVRENIILALQAQRGWLRPISRKEQQEIAERFIRQLGIRTPSTEQPIEFLSGGNQQKVLLSRWLLTRPQFLILDEPTRGIDVGAHAEIIRLIETLCADGLALLVISSELEELVGYADRVIIMRDRKQVAEIPLAELSVPAIMNAIAA	failed
MSGLAQRSDDPWLAALPAAVLYGAWAAYANQDGGLAGMGVAALLQGAASLLATRFGLYLLQCLGRRHGLAQRQAPLLVVLLLTAPMAALHWLSGTPHPLASVAPSFVIGWLYFALWARRRPGRRQASGA	failed
MKKSLVVCALSAAVLLSGCETVNTTSGGVVGVDRKQSMFSMVSSAEVNQSYAQSYQQTLGEASSQGVLDKTSANAKRLQVIANRLIAQAPTFRPDCAQWKWEVNLIKSDELNANCGPGGKIIFYSGLIEKLKLTDDEIAAVMGHEIAHALREHGREAMSKQYAVGAGKQIATLFGVPQETVALGDNGVNLLMTLPNSRENENEADLIGLELAARAGYNPNAAISLWNKMGQAAGGSAPPEFMSTHPASTSRIASLQAAIPKVMPLYQAAKKSLEHHHHHH	failed
MIRHTVVFTLKHASHSLEEKRFLVDAKKILSAIRGVTHFEQLRQISPKIDYHFGFSMEFADQAAYTRYNDHPDHVAFVRDRWVPEVEKFLEIDYVPLGSVV	not failed
GIPSLVATAERRMKLVPGSVVMQFASIGFDVAVFELSMALCTGSRLVIVPDESRVAGPELTDFMAAHAVTHAIIPPSLLAALPSGCDVPEGCTVLVGTETVPPELIGRWAERLNLLAAYGLTEATVNNTLWQAQPGWDSAVPIGIP	failed
MILNTEEYPISIGNEIKYTKEVYDCLQLLRLRTILKEYEVNLILDVGANEGQFASVLRDIGYVGTIISFEPLSKEYRLLSQAASKDSNWYTYNLALGKQNKEQILHVSDKSTFSSFLLSNSLCEQRFGKESIGDKNEVVSVRRLDNFLVEVVKNIDKMRIYLKMDTQGYDLEVFSGAGTLLKNIVALQSEVSVVPIYHSMPDMLYSISLFQEAGFSLSGMYPVTYVKPTLQVIEFDCLMVKADTKIS	failed
MNEREAKMYELEFPAPDVASDGVDGPTLIIAMQGYADAGLAVEASADHLLSALEHRPVAVFNNDELIDYRSRRPAVTIDHNIVVDANELKLSMDVLRDSNGTPFLLLSGPEPDLRWDAFSQAVADLVRRFGVRRTICIYAAPMTVPHTRPLIVSAHGNSLDLIKHHFSIDSKVTIPGSASLHIERLLNKNNIDVAGYTAHVPHYLSASAYPLATLKLLEAITTSTNLDFPLKTLEADAQKTALQVEEQVAGSQEIESVVKILEQQYDE	failed
MEQWDHFHNQQEDTDSCSESVKFDARSMTALLPPNPKNSPSLQEKLKSFKAALIALYLLVFAVLIPLIGIVAAQLLKWETKNCSVSSTNANDITQSLTGKGNDSEEEMRFQEVFMEHMSNMEKRIQHILDMEANLMDTEHFQNFSMTTDQRFNDILLQLSTLFSSVQGHGNAIDEISKSLISLNTTLLDLQLNIENLNGKIQENTFKQQEEISKLEERVYNVSAEIMAMKEEQVHLEQEIKGEVKVLNNITNDLRLKDWEHSQTLRNITLIQGPPGPPGEKGDRGPTGESGPRGFPGPIGPPGLKGDRGAIGFPGSRGLPGYAGRPGNSGPKGQKGEKGSGNTLTPFTKVRLVGGSGPHEGRVEILHSGQWGTICDDRWEVRVGQVVCRSLGYPGVQAVHKAAHFGQGTGPIWLNEVFCFGRESSIEECKIRQWGTRACSHSEDAGVTCTL	failed
MTPGGLFLPYHSLPQPDFLASCPTRHLKLCQCPGILAENPHQFSPTFPPGKGSCQHGALPGQVSLKEAAHTEMSLSGQDLFPSPAHPPLQPFWLPFSLCLSTPFLVADNELRLPKGQICPLHVFVLANRVVLKLCANSVWEHSKGIT	failed
MKARLLIVVAVLALTACATTTSPTGRRQVVGGVSQQQLDQLGAQSFAQTKAKEKVSTDGKQNAYVQCVVNALVAQLPPQWRETKWETALFVDNEANAFALPGGKVGVNTGIFTVAKTQDQLAAVLGHEIGHVISRHHEERITRQLGAQTGLGIIGALAGAAYGDGAASAVNQVGGMTAQTVFLLPGSRTQESEADVVGQRLMAQAGFDPAQAVTLWQNMMAASGNRQPQWLSTHPDPANRIRELQADVAQLEPVYQQAKQSGRAPRCG	failed
MSSQVIPALPKTFSSSLDLWREKNDQLVRQAKQLTRDSRPSLRRQQSAQDTLEGLRELLLTLQGLPAAVPALPLELTVLCNCIILRASLVQAFTEDLTQDLQRGLERVLEAQHHLEPKSQQGLKELWHSVLSASSLPPELLPALHCLASLQAVFWMSTDHLEDLTLLLQTLNGSQTQSSEDLLLLLKSWSPPAEESPAPLILQDAESLRDVLLTAFACRQGFQELITGSLPHAQSNLHEAASGLCPPSVLVQVYTALGACLRKMGNPQRALLYLTEALKVGTTCALPLLEASRVYRQLGDRAAELESLELLVEALSATHSSETFKSLIEVELLLPQPDPASPLHCGTQSQAKHLLASRCLQTGRAEDAAEHYLDLLAMLLGGSETRFSPPTSSLGPCIPELCLEAAAALIQAGRALDALTVCEELLNRTSSLLPKMSSLWENARKRAKELPCCPVWVSATHLLQGQAWSQLKAQKEALSEFSQCLELLFRTLPEDKEQGSDCEQKCRSDVALKQLRVAALISRGLEWVASGQDTKALSDFLLSVQICPGNRDGSFYLLQTLKRLDRKNEASAFWREAHSQLPLEDAAGSLPLYLETCLSWIHPPNREAFLEEFGTSVLESCVL	failed
MKIFGTDGVRGKAGVKLTPMFVMRLGIAAGLYFKKHSQTNKILIGKDTRKSGYMVENALVSALTSIGYNVIQIGPMPTPAIAFLTEDMRCDAGIMISASHNPFEDNGIKFFNSYGYKLKEEEEKAIEEIFHDEELLHSSYKVGESVGSAKRIDDVIGRYIAHLKHSFPKHLNLQSLRIVLDTANGAAYKVAPVVFSELGADVLVINDEPNGCNINDQCGALHPNQLSQEVKKYRADLGFAFDGDADRLVVVDNLGNIVHGDKLLGVLGVYQKSKNALSSQAVVATNMSNLALKEYLKSQDLELKHCAIGDKFVSECMQLNKANFGGEQSGHIIFSDYAKTGDGLVCALQVSALVLESKQVSSVALNPFELYPQSLVNLNVQKKPPLESLKGYSALLKELDKLEIRHLIRYSGTENKLRILLEAKDEKLLESKMQELKEFFEGHLC	failed
MLGGQYYLIAFILAVIVVWFTTPLINHWGRRAGYVDQPSARKMHHRPMVRLGGVSIFLGSLVALLVVWNLGAFGAMSTKGEWEVWGVVLGGLAFFGIGLFDDLFDLSPFSRLLAQVAIASVVWNMGVRIDFFTLPFLGNLVYLNILSLPITVIWLVGLANAINWIDGLDGLAAGVCGIAAVVLFVLCLFMEQSEAALIAAALAGGALGFLRYNFNPAQIFMGDGGAYFMGFTLGAVAVIGLVKVAAMATVAVTAVLLPYLVLAVPILDMSVVILSRVIKGKSPFKADKGHLHHRLINAGISHRLTVLFIYALTLWAGSLALGFSNIPSGWGFAIGATVLLIYLGWQVWRNSRNVGEQD	failed
MSLKVQGYANVVTLPNVTGRVIIVGDIHGCRAQLEDLLRAVSFKQGSDTLVAVGDLVNKGPDSFGVVRLLKRLGAYSVLGNHDAKLLKLVKKLGKKECLKGRDAKSSLAPLAQSIPTDVETYLSQLPHIIRIPAHNVMVAHAGLHPQRPVDRQYEDEVTTMRNLIEKEQEATGGVTLTATEETNDGGKPWASMWRGPETVVFGHDARRGLQEQYKPLAIGLDSRCVYGGRLSAAVFPGGCIISVPGWNGASAAAEGHHHHHH	not failed
EEGLEIATLKRIVADMHAAAETAGVHIVTGDTKVVPKGTCDKLYITTAGVGIIPEGRTSADPQIGDAIIVSGPIADHGMAVMMARGDLAISAPIESDTRSVNGQIEALYAAGVTPRWMRDATRGGLATVMNELARATGLGVALNDPLPVRDMTRAACDMLGIDPMYVANEGTFVAIVPADQVDTALATIPEASCIGQIVEQPAASVVLRTGFGGSRMVDMLVGDPLPRIC	failed
MTHVTLRSEFETLIDPYAPVAQVGTGFDFTEGPIWHPIDHYLLFSDMPGDVRRRWDARRGMAEVKRPSNKCNGMTYDAELNLIVCEHATSSLIRERPDGRREVLASHFGGQELNSPNDVCVHSSGAIYFSDPWYGRMPVYGVERPRQLGFQGVYRVMPGGEPKLVVDRNLFDQPNGLCFSPDERLLYVNDTVQALIRVFDVNADGTLSNARVFASSIKSELEPGLPDGMKCDQHGNVWVTAPGGVWVYSPRGELLGKVRVPELVANLAWGGPDFRTLYLTSTHSVYAIPTRVGPRHEPYMSGRRGGAGASAGPAAAAPILTDGEMRLDPQRCAMIIQDLQNDVIMDGGAFDGSGAPAHAKQQHVVENVRRLAEAARARGVAIIHVWFVVEPGAPGVTLNAPLFEGLVDSKAMVRGSWGAAPVSGLEPRPGDFVVEKMRMSAWEGTRLETILKATGRDMIINTGAWTNMSVEHTARTGADKGYFMIVPEDCCSTMNADWHSASINFAMQNVAIVTRADAVIRALGLEHHHHHH	failed
MSHGIKLLVSGDHACFTRPEMKAERVSYDVMTPSAARGILEAIHWKPAITWVIDAIHVLKPIRFQTLRRNEVGGKVPAGKVKSAMTKGTLDGLALLADEDRQQRATTLLVDVAYVIEAHFTLTDKAGPEDNPGKHLDIFTRRARKGQCFHQPCLGTREFPARFELIDGDRPIPAAVNRSEDLGFMLWDIDHAGDRSSMFFRARMDRGVVRVPAPSSAEIRR	failed
MIWIILASFLMYSIFVMWFSWYKTRGTDLSSSDGYFLGGRSLTGIVIASSLILTNLSTEQVVGLNGQAFGESMVVMAWEVTAPIALILMAFVFLPRYLKLGITTIPDFLEQRFDLRTRQIVSVLFLLGYATVFLPTVLYSGALVIDSIFSLSSVMDISPFMIVLCISIAIGIISCGYVILGGLKACAMSDTINGIGLIIGGLLIPILALFVLGRGDFASGVGELVSANPTKLNAIGNDQASVPWAVLLTGLLFNNLFYWCTNQSIIQRTLAAKNLAEGQKGVLFAGMFKIFGAAFLVLPGIIAYLLYGDVLANADMAYPSLVIDVMPVALSGFLAAVLFGAILSSFNNVLNSSITLFTLDIYKPIFKPNAKEPELVKAGRIFAACLAITAVVIAPFILYAPQGLYYFLQEMNGFYSLPIIAMVIVGFFSKYVPASAPKVLVAVHVVLYAGSKVVLGEVNFLYVLSVLFPINVLVMLIVGRLKPRETSFVLPTANKVDLTPWKYAKPFSAFILLTMLGVYTFFSPLGVAESSGGYTIYQFIFFIVTLAFIGGVVLFWKKTDRIRGGRVPLNQMYPFNQKSG	failed
MVDFIRRIQISCVVSLTDSRHQRRTKSHHHPLNPPNPVAESRKRSKGKQKEKVNNMVLFDQATYDKLMSEAPKFKLITPSILSDRLRINGSLARKAIRDLMVKGTIRMVSTHSSQQINTRATCLT	failed
WKPELDELARRENFAQQMGGIDKVKRQHDQGRLTVRERIDRLSDAGSFHEIGAVAGLGEYDANGELINLTPANCVFGRAKIDGRTVVVVGDDFTVRGGSADASIHAKPQMAEEMAHDYRLPIIRVIEGSGGGGSVRTIESKGAANLPGGVDGTRWYWYTTAN	failed
